# Positions count from the first letter of the chain named.
# Columns and labels:
# human C4b (human) [1] = target: T1, human C4b (human) (UniProt P0C0L4)
# T1 sequence: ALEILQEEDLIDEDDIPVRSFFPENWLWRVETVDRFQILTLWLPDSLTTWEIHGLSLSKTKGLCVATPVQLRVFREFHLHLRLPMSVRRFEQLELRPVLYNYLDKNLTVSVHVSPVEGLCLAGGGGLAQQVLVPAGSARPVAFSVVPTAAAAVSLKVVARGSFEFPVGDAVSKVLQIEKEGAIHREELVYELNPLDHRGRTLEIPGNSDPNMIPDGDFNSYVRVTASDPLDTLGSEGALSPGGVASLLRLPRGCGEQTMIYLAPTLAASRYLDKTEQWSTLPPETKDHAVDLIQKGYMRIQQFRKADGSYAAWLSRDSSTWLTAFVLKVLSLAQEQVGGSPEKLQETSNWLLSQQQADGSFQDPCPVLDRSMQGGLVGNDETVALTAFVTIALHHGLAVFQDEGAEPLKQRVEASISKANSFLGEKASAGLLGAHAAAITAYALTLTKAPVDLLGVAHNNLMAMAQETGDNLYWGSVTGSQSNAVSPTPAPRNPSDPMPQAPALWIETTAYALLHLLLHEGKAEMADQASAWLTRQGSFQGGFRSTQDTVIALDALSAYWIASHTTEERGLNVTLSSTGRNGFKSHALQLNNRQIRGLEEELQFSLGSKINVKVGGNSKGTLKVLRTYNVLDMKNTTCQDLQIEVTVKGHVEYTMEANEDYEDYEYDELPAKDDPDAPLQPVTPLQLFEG
# [2] = target: soluble human C3b (human) (UniProt P01024)
# human C4b (human) [3] = target: T2, human C4b (human) (UniProt P0C0L5)
# T2 sequence: T1 sequence with A151T, D317G, P364L, C365S, L368I, D369H, N420S, V451A, L454R, S530A
# [4] = target: soluble human C3b (human) (UniProt P01024); remark: listed apart in the source
# human C4b (human) [5] = target: T2, human C4b (human); remark: listed apart in the source
# human C4b (human) [6] = target: T1, human C4b (human); remark: listed apart in the source
Substance,C4b Screen Ref Fold (fold of CFI-HSA wild type) (human C4b (human) [1]),iC3b Screen Ref Fold (fold of CFI-HSA wild type) [2],C4c EC50 (human C4b (human) [3]) [nM],iC3b EC50 [4] [nM],C4b Screen Ref Fold (fold relative to CFI-HSA wild type) (human C4b (human) [5]),iC3b Screen Ref Fold (fold relative to CFI-HSA wild type) [2],C4c EC50 (nM) (human C4b (human) [6]),C4b Screen Ref Fold (fold of reference) (human C4b (human) [1]),C4b Screen Ref Fold (fold of CFI-HSA wild type) (human C4b (human) [5]),iC3b Screen Ref Fold (fold of reference) [2],C4c EC50 (human C4b (human) [6]) [nM]
CFI-HSA variant T377G; N422K (enzyme),2.25,2.55,37.4,4.1,–,–,–,–,–,–,–
CFI-HSA variant D425K; Y408M; F537K (enzyme),0.09,1.52,> 1000,10.8,–,–,–,–,–,–,–
CFI-HSA variant D425K; E530F (enzyme),0.08,2.17,> 1000,5.8,–,–,–,–,–,–,–
CFI-HSA variant K504R; E530F; P558G; E457G; E461Q; N531G (enzyme),3.96,1.77,8.2,–,–,–,–,–,–,–,–
CFI-HSA variant D425R; E530F; E457G; E461Q; N531G (enzyme),4.48,0.99,6.2,3.2,–,–,–,–,–,–,–
CFI-HSA variant N531G; N422K; T377G (enzyme),3.88,2.74,6.8,3.3,–,–,–,–,–,–,–
CFI-HSA variant D425R; E530F; P558G; E457G; E461Q; N531G (enzyme),4.13,0.87,5,–,–,–,–,–,–,–,–
CFI-HSA variant N531G; E461Q; N422K (enzyme),4.01,1.81,7.2,3.7,–,–,–,–,–,–,–
CFI-HSA variant R557A; N531D; Y403F; K504Y (enzyme),3.81,0.11,38.6,156,–,–,–,–,–,–,–
CFI-HSA variant D425K; E457G; E461Q; N531G (enzyme),4.26,2.07,–,2.5,3.28,0.09,6,–,–,–,–
CFI-HSA variant E530F; P558S; E457G; E461Q; N531G (enzyme),–,–,9.1,4.8,–,–,–,–,–,–,–
CFI-HSA variant Y563H (enzyme),–,0.73,–,24.6,–,–,855,1.03,0.65,1.4,–
CFI-HSA variant K504R; D425R; E530F; E457G; E461Q; N531G (enzyme),4.2,1.18,7.4,–,–,–,–,–,–,–,–
CFI-HSA variant E530R (enzyme),–,–,–,14.7,–,–,–,0.76,–,0.8,> 1000
CFI-HSA variant E416A; N422K; E457G; E461Q; Q467K; N531G (enzyme),3.84,3.05,–,1.7,–,–,4.4,–,–,–,–
CFI-HSA variant E416A; K504H (enzyme),0.63,0.59,–,20.8,–,–,168,–,–,–,–
CFI-HSA variant D341A (enzyme),–,–,–,57.2,–,–,> 1000,0.19,–,0.26,–
CFI-HSA variant E457G; E461Q; F464Y; E530F; N531G; P558S (enzyme),4.21,2.01,–,4.2,–,–,18.1,–,–,–,–

# Further lines, results first:
C4b Screen Ref Fold (fold of CFI-HSA wild type) (human C4b (human) [1]),iC3b Screen Ref Fold (fold of CFI-HSA wild type) [2],C4c EC50 (human C4b (human) [3]) [nM],iC3b EC50 [4] [nM],C4b Screen Ref Fold (fold relative to CFI-HSA wild type) (human C4b (human) [5]),iC3b Screen Ref Fold (fold relative to CFI-HSA wild type) [2],C4c EC50 (nM) (human C4b (human) [6]),C4b Screen Ref Fold (fold of reference) (human C4b (human) [1]),C4b Screen Ref Fold (fold of CFI-HSA wild type) (human C4b (human) [5]),iC3b Screen Ref Fold (fold of reference) [2],C4c EC50 (human C4b (human) [6]) [nM],Substance
3.61,2.37,17.2,3.5,–,–,–,–,–,–,–,CFI-HSA variant E457G; E461Q; N422K (enzyme)
4.4,1.08,6.4,3.4,–,–,–,–,–,–,–,CFI-HSA variant D425K; E530F; E457G; E461Q; N531G (enzyme)
4.14,1.58,4.8,–,–,–,–,–,–,–,–,CFI-HSA variant K504R; D425R; P558G; E457G; E461Q; N531G (enzyme)
4.28,0.36,22.4,38.2,–,–,–,–,–,–,–,CFI-HSA variant R557A; N531G; Y403F; K504Y; E457G; E461Q (enzyme)
4.1,2.28,5,4.9,–,–,–,–,–,–,–,CFI-HSA variant N531G; E461Q; T377G (enzyme)
3.96,2.75,7.9,3.6,–,–,–,–,–,–,–,CFI-HSA variant E461Q; N422K; T377G (enzyme)
3.28,0.03,76.3,334,–,–,–,–,–,–,–,CFI-HSA variant R557A; N531M; Y403F; K504Y (enzyme)
4.39,1.28,4.2,3.2,–,–,–,–,–,–,–,CFI-HSA variant N531G; E457G; N422K; T377G (enzyme)
3.92,0.78,3.5,3.7,–,–,–,–,–,–,–,CFI-HSA variant T377G; N422K; E457G; E461Q; N531G (enzyme)
4.33,1.54,2.9,4.5,–,–,–,–,–,–,–,CFI-HSA variant N531G; E457G; T377G (enzyme)
0.77,2.11,153,7,–,–,–,–,–,–,–,CFI-HSA variant D425K; P558S (enzyme)
4.18,2.98,–,3,–,–,8.2,–,–,–,–,CFI-HSA variant K504R; E457G; E461Q; N531G (enzyme)
2.93,0.41,124,–,–,–,–,–,–,–,–,CFI-HSA variant R557K; N531M (enzyme)
–,–,–,13,–,–,223,3.03,–,-0.01,–,CFI-HSA variant N531K (enzyme)
1.78,0.49,–,22.7,–,–,> 1000,–,–,–,–,CFI-HSA variant E457G; E461Q; F464Y; K504H; N531G (enzyme)
–,–,–,110,–,–,> 1000,0.09,–,0.15,–,CFI-HSA variant E457W (enzyme)
–,–,–,176,–,–,> 1000,0.05,–,0.1,–,CFI-HSA variant K504I (enzyme)
